Test results from publication PMC6778148.

Biological target: fluorescein-labelled divalent stargazin-derived peptide ligand
Test: fluorescence polarisation; direct titration: 50 nM fluorescein-labelled stargazin ligand (divalent or monovalent) against increasing concentrations of PDZ domains; apparent KD

Kd: 175 nM
B1: SAP102 tandem PDZ domains 1 and 2 (SAP102-12), from pET-NO (domain or fragment)
chain: FKYEEIVLERGNSGLGFSIAGGIDNPHVPDDPGIFITKIIPGGAAAMDGRLGVNDCVLRVNEVDVSEVVHSRAVEALKEAGPVVRLVVRRRQPPPETIMEVNLLKGPKGLGFSIAGGIGNQHIPGDNSIYITKIIEGGAAQKDGRLQIGDRLLAVNNTNLQDVRHEEAVASLKNTSDMVYLKVAKPGSL
